# Data: patent US20160367623A1, “AGONISTS OF GUANYLATE CYCLASE USEFUL FOR THE TREATMENT OF GASTROINTESTINAL DISORDERS, INFLAMMATION, CANCER AND OTHER DISORDERS” (priority 2015, published 2016)
# Bridge positions count the residues as written; N and C are the ends. Ends that are not written are not given here.
# System: patients with chronic idiopathic constipation (CIC)
# Assay: Second phase 3 CIC trial: treatment emergent adverse events, safety
substance,measurement,setting,value
"Asn^1-Asp^2-Glu^3-Cys^4-Glu^5-Leu^6-Cys^7-Val^8-Asn^9-Val^10-Ala^11-Cys^12-Thr^13-Gly^14-Cys^15-Leu^16 (NDECELCVNVACTGCL; disulfide 4-12, 7-15) [Plecanatide]",Influenza like illness: events E,Active Combined (N = 936),1
same,Influenza like illness: patients %,Active Combined (N = 936),(0.1) %
same,Influenza like illness: patients (%),Active Combined (N = 936),(0.1) %
same,Influenza like illness: patients N,Active Combined (N = 936),1
same,Influenza: events E,Active Combined (N = 936),9
same,Influenza: patients %,Active Combined (N = 936),(1.0) %
same,Influenza: patients N,Active Combined (N = 936),9
same,"Injury, poisoning and procedural complications (SOC): events E",Active Combined (N = 936),19
same,"Injury, poisoning and procedural complications (SOC): patients %",Active Combined (N = 936),(1.7) %
same,"Injury, poisoning and procedural complications (SOC): patients N",Active Combined (N = 936),16
same,"Insomnia, events E",Active Combined (N = 936),3
same,"Insomnia, patients (%)",Active Combined (N = 936),(0.3) %
same,"Insomnia, patients N",Active Combined (N = 936),3
same,"Intervertebral disc disorder, Mild: events E",Active Combined (N = 936),0
same,"Intervertebral disc disorder, Mild: patients N",Active Combined (N = 936),0
same,"Intervertebral disc disorder, Moderate: events E",Active Combined (N = 936),0
same,"Ligament sprain, events E",Active Combined (N = 936),2
same,"Ligament sprain, patients (%)",Active Combined (N = 936),(0.2) %
same,"Ligament sprain, patients N",Active Combined (N = 936),2
same,"Musculoskeletal and connective tissue disorders [System Organ Class], events E",Active Combined (N = 936),19
same,"Musculoskeletal and connective tissue disorders [System Organ Class], patients (%)",Active Combined (N = 936),(2.0) %
same,"Musculoskeletal and connective tissue disorders [System Organ Class], patients N",Active Combined (N = 936),19
same,"Musculoskeletal and connective tissue disorders, Mild: events E",Active Combined (N = 936),10
same,"Musculoskeletal and connective tissue disorders, Mild: patients (%)",Active Combined (N = 936),(1.1) %
same,"Musculoskeletal and connective tissue disorders, Mild: patients N",Active Combined (N = 936),10
same,"Musculoskeletal and connective tissue disorders, Moderate: events E",Active Combined (N = 936),9
same,"Musculoskeletal and connective tissue disorders, Moderate: patients (%)",Active Combined (N = 936),(1.0) %
same,"Musculoskeletal and connective tissue disorders, Moderate: patients N",Active Combined (N = 936),9
same,"Musculoskeletal and connective tissue disorders, Severe: events E",Active Combined (N = 936),0
same,"Musculoskeletal and connective tissue disorders, Severe: patients N",Active Combined (N = 936),0
same,Musculoskeletal and connective tissue disorders: events E,Active Combined (N = 936),19
same,Musculoskeletal and connective tissue disorders: patients (%),Active Combined (N = 936),(2.0) %
same,Musculoskeletal and connective tissue disorders: patients N,Active Combined (N = 936),19
same,"Musculoskeletal chest pain, Mild: events E",Active Combined (N = 936),1
same,"Musculoskeletal chest pain, Mild: patients (%)",Active Combined (N = 936),(0.1) %
same,"Musculoskeletal chest pain, Mild: patients N",Active Combined (N = 936),1
same,"Musculoskeletal chest pain, Moderate: events E",Active Combined (N = 936),0
same,"Musculoskeletal chest pain, Moderate: patients N",Active Combined (N = 936),0
same,"Musculoskeletal chest pain, Severe: events E",Active Combined (N = 936),0
same,"Musculoskeletal chest pain, Severe: patients N",Active Combined (N = 936),0
same,Musculoskeletal chest pain: events E,Active Combined (N = 936),1
same,Musculoskeletal chest pain: patients (%),Active Combined (N = 936),(0.1) %
same,Musculoskeletal chest pain: patients N,Active Combined (N = 936),1
same,"Musculoskeletal pain, Mild: events E",Active Combined (N = 936),1
same,"Musculoskeletal pain, Mild: patients (%)",Active Combined (N = 936),(0.1) %
same,"Musculoskeletal pain, Mild: patients N",Active Combined (N = 936),1
same,"Musculoskeletal pain, Moderate: events E",Active Combined (N = 936),1
same,"Musculoskeletal pain, Moderate: patients (%)",Active Combined (N = 936),(0.1) %
same,"Musculoskeletal pain, Moderate: patients N",Active Combined (N = 936),1
same,"Musculoskeletal pain, Severe: events E",Active Combined (N = 936),0
same,"Musculoskeletal pain, Severe: patients N",Active Combined (N = 936),0
same,Musculoskeletal pain: events E,Active Combined (N = 936),2
same,Musculoskeletal pain: patients (%),Active Combined (N = 936),(0.2) %
same,Musculoskeletal pain: patients N,Active Combined (N = 936),2
same,"SAE Musculoskeletal and connective tissue disorders, E events",Active Combined (N = 936),0
same,"SAE Musculoskeletal and connective tissue disorders, N patients",Active Combined (N = 936),0
same,"SAE Musculoskeletal and connective tissue disorders, No Reasonable Possibility, E events",Active Combined (N = 936),0
same,"SAE Musculoskeletal and connective tissue disorders, No Reasonable Possibility, N patients",Active Combined (N = 936),0
same,"SAE Musculoskeletal and connective tissue disorders, Reasonable Possibility, E events",Active Combined (N = 936),0
same,"SAE Musculoskeletal and connective tissue disorders, Reasonable Possibility, N patients",Active Combined (N = 936),0
same,"Skeletal injury, events E",Active Combined (N = 936),1
same,"Skeletal injury, patients (%)",Active Combined (N = 936),(0.1) %
same,"Skeletal injury, patients N",Active Combined (N = 936),1
same,"TE SAE: Musculoskeletal and connective tissue disorders, E events",Active Combined (N = 936),0
same,"TE SAE: Musculoskeletal and connective tissue disorders, N patients",Active Combined (N = 936),0
same,"TEAE Leading to Discontinuation: Infections and infestations, % patients",Active Combined (N = 936),(0.1) %
same,"TEAE Leading to Discontinuation: Infections and infestations, E events",Active Combined (N = 936),1
same,"TEAE Leading to Discontinuation: Infections and infestations, N patients",Active Combined (N = 936),1
same,"TEAE Leading to Discontinuation: Musculoskeletal and connective tissue disorders, E events",Active Combined (N = 936),0
same,"TEAE Leading to Discontinuation: Musculoskeletal and connective tissue disorders, N patients",Active Combined (N = 936),0
same,"TEAE Leading to Discontinuation: Viral infection, % patients",Active Combined (N = 936),(0.1) %
same,"TEAE Leading to Discontinuation: Viral infection, E events",Active Combined (N = 936),1
same,"TEAE Leading to Discontinuation: Viral infection, N patients",Active Combined (N = 936),1
same,"Musculoskeletal and connective tissue disorders [System Organ Class], events E",Plecanatide 3 mg (N = 467),8
same,"Musculoskeletal and connective tissue disorders [System Organ Class], patients (%)",Plecanatide 3 mg (N = 467),(1.7) %
same,"Musculoskeletal and connective tissue disorders [System Organ Class], patients N",Plecanatide 3 mg (N = 467),8
same,"Musculoskeletal and connective tissue disorders, Mild: events E",Plecanatide 3 mg (N = 467),4
same,"Musculoskeletal and connective tissue disorders, Mild: patients (%)",Plecanatide 3 mg (N = 467),(0.9) %
same,"Musculoskeletal and connective tissue disorders, Mild: patients N",Plecanatide 3 mg (N = 467),4
same,"Musculoskeletal and connective tissue disorders, Moderate: events E",Plecanatide 3 mg (N = 467),4
same,"Musculoskeletal and connective tissue disorders, Moderate: patients (%)",Plecanatide 3 mg (N = 467),(0.9) %
same,"Musculoskeletal and connective tissue disorders, Moderate: patients N",Plecanatide 3 mg (N = 467),4
same,"Musculoskeletal and connective tissue disorders, Severe: events E",Plecanatide 3 mg (N = 467),0
same,"Musculoskeletal and connective tissue disorders, Severe: patients N",Plecanatide 3 mg (N = 467),0
same,Musculoskeletal and connective tissue disorders: events E,Plecanatide 3 mg (N = 467),8
same,Musculoskeletal and connective tissue disorders: patients (%),Plecanatide 3 mg (N = 467),(1.7) %
same,Musculoskeletal and connective tissue disorders: patients N,Plecanatide 3 mg (N = 467),8
same,"Musculoskeletal chest pain, Mild: events E",Plecanatide 3 mg (N = 467),1
same,"Musculoskeletal chest pain, Mild: patients (%)",Plecanatide 3 mg (N = 467),(0.2) %
same,"Musculoskeletal chest pain, Mild: patients N",Plecanatide 3 mg (N = 467),1
same,"Musculoskeletal chest pain, Moderate: events E",Plecanatide 3 mg (N = 467),0
same,"Musculoskeletal chest pain, Moderate: patients N",Plecanatide 3 mg (N = 467),0
same,"Musculoskeletal chest pain, Severe: events E",Plecanatide 3 mg (N = 467),0
same,"Musculoskeletal chest pain, Severe: patients N",Plecanatide 3 mg (N = 467),0
same,Musculoskeletal chest pain: events E,Plecanatide 3 mg (N = 467),1
same,Musculoskeletal chest pain: patients (%),Plecanatide 3 mg (N = 467),(0.2) %
same,Musculoskeletal chest pain: patients N,Plecanatide 3 mg (N = 467),1
same,"Musculoskeletal pain, Mild: events E",Plecanatide 3 mg (N = 467),1
same,"Musculoskeletal pain, Mild: patients (%)",Plecanatide 3 mg (N = 467),(0.2) %
same,"Musculoskeletal pain, Mild: patients N",Plecanatide 3 mg (N = 467),1
same,"Musculoskeletal pain, Moderate: events E",Plecanatide 3 mg (N = 467),0
same,"Musculoskeletal pain, Moderate: patients N",Plecanatide 3 mg (N = 467),0
same,"Musculoskeletal pain, Severe: events E",Plecanatide 3 mg (N = 467),0
same,"Musculoskeletal pain, Severe: patients N",Plecanatide 3 mg (N = 467),0
same,Musculoskeletal pain: events E,Plecanatide 3 mg (N = 467),1
same,Musculoskeletal pain: patients (%),Plecanatide 3 mg (N = 467),(0.2) %
same,Musculoskeletal pain: patients N,Plecanatide 3 mg (N = 467),1
same,"Skeletal injury, events E",Plecanatide 3 mg (N = 467),0
same,"Skeletal injury, patients N",Plecanatide 3 mg (N = 467),0
same,"TE SAE: Musculoskeletal and connective tissue disorders, E events",Plecanatide 3 mg (N = 467),0
same,"TE SAE: Musculoskeletal and connective tissue disorders, N patients",Plecanatide 3 mg (N = 467),0
same,"TEAE Leading to Discontinuation: Musculoskeletal and connective tissue disorders, E events",Plecanatide 3 mg (N = 467),0
same,"TEAE Leading to Discontinuation: Musculoskeletal and connective tissue disorders, N patients",Plecanatide 3 mg (N = 467),0
same,"Musculoskeletal and connective tissue disorders [System Organ Class], events E",Plecanatide 6 mg (N = 469),11
same,"Musculoskeletal and connective tissue disorders [System Organ Class], patients (%)",Plecanatide 6 mg (N = 469),(2.3) %
same,"Musculoskeletal and connective tissue disorders [System Organ Class], patients N",Plecanatide 6 mg (N = 469),11
same,"Musculoskeletal and connective tissue disorders, Mild: events E",Plecanatide 6 mg (N = 469),6
same,"Musculoskeletal and connective tissue disorders, Mild: patients (%)",Plecanatide 6 mg (N = 469),(1.3) %
same,"Musculoskeletal and connective tissue disorders, Mild: patients N",Plecanatide 6 mg (N = 469),6
same,"Musculoskeletal and connective tissue disorders, Moderate: events E",Plecanatide 6 mg (N = 469),5
same,"Musculoskeletal and connective tissue disorders, Moderate: patients (%)",Plecanatide 6 mg (N = 469),(1.1) %
same,"Musculoskeletal and connective tissue disorders, Moderate: patients N",Plecanatide 6 mg (N = 469),5
same,"Musculoskeletal and connective tissue disorders, Severe: events E",Plecanatide 6 mg (N = 469),0
same,"Musculoskeletal and connective tissue disorders, Severe: patients N",Plecanatide 6 mg (N = 469),0
same,Musculoskeletal and connective tissue disorders: events E,Plecanatide 6 mg (N = 469),11
same,Musculoskeletal and connective tissue disorders: patients (%),Plecanatide 6 mg (N = 469),(2.3) %
same,Musculoskeletal and connective tissue disorders: patients N,Plecanatide 6 mg (N = 469),11
same,"Musculoskeletal chest pain, Mild: events E",Plecanatide 6 mg (N = 469),0
same,"Musculoskeletal chest pain, Mild: patients N",Plecanatide 6 mg (N = 469),0
same,"Musculoskeletal chest pain, Moderate: events E",Plecanatide 6 mg (N = 469),0
same,"Musculoskeletal chest pain, Moderate: patients N",Plecanatide 6 mg (N = 469),0
same,"Musculoskeletal chest pain, Severe: events E",Plecanatide 6 mg (N = 469),0
same,"Musculoskeletal chest pain, Severe: patients N",Plecanatide 6 mg (N = 469),0
same,Musculoskeletal chest pain: events E,Plecanatide 6 mg (N = 469),0
same,Musculoskeletal chest pain: patients N,Plecanatide 6 mg (N = 469),0
same,"Musculoskeletal pain, Mild: events E",Plecanatide 6 mg (N = 469),0
same,"Musculoskeletal pain, Mild: patients N",Plecanatide 6 mg (N = 469),0
same,"Musculoskeletal pain, Moderate: events E",Plecanatide 6 mg (N = 469),1
same,"Musculoskeletal pain, Moderate: patients (%)",Plecanatide 6 mg (N = 469),(0.2) %
same,"Musculoskeletal pain, Moderate: patients N",Plecanatide 6 mg (N = 469),1
same,"Musculoskeletal pain, Severe: events E",Plecanatide 6 mg (N = 469),0
same,"Musculoskeletal pain, Severe: patients N",Plecanatide 6 mg (N = 469),0
same,Musculoskeletal pain: events E,Plecanatide 6 mg (N = 469),1
same,Musculoskeletal pain: patients (%),Plecanatide 6 mg (N = 469),(0.2) %
same,Musculoskeletal pain: patients N,Plecanatide 6 mg (N = 469),1
same,"Skeletal injury, events E",Plecanatide 6 mg (N = 469),1
same,"Skeletal injury, patients (%)",Plecanatide 6 mg (N = 469),(0.2) %
same,"Skeletal injury, patients N",Plecanatide 6 mg (N = 469),1
same,"TE SAE: Musculoskeletal and connective tissue disorders, E events",Plecanatide 6 mg (N = 469),0
same,"TE SAE: Musculoskeletal and connective tissue disorders, N patients",Plecanatide 6 mg (N = 469),0
same,"TEAE Leading to Discontinuation: Musculoskeletal and connective tissue disorders, E events",Plecanatide 6 mg (N = 469),0
same,"TEAE Leading to Discontinuation: Musculoskeletal and connective tissue disorders, N patients",Plecanatide 6 mg (N = 469),0
